# Data as given in paper PMC7666153, “The phosphorylated regulator of chemotaxis is crucial throughout biofilm biogenesis in Shewanella oneidensis” (NPJ Biofilms and Microbiomes, 2020).
# B1: His-tagged SO4207S (soluble cytoplasmic domain of SO4207, D388 to N625) (domain or fragment, S. oneidensis, UniProt Q8E9Q9 388-625, looked up)
# chain: DERKAKQRIQQEALKQAQKIRSAREEALKVEAETNERLEQKVQERTLELEITLRELHEVNQKLTEQSTIDSLTGVKNRSAFDKRLLAESRISRRQETPIALLMLDIDRFKSINDQFGHLAGDQALKLIAQTLQQHLKRPTDLVSRFGGEEFAIILPNTTADGALQVAESIRDTVSCIGLTWEGKPIPLTVSIGVSADVIMNEQHSTELLEQADKALYQAKNSGRNQVKLYAPAQTEPN
# notes: diguanylate cyclase SO4207 of Shewanella oneidensis, cytoplasmic domain D388 to N625, devoid of the transmembrane segments; Cloned into pET21b; printed mass 30 kDa; also called pET-SO4207S; source: E. coli BL21 (DE3), purified (HisTrapFF); not shown: 6xHis-tag, C-terminal, kept
# Target: the molecule itself
# Assay: cross-linking; Strep-tagged CheY3 (11.8 µM) and His-tagged SO4207S (3.1 µM), together or separately, 5 mM EDC, 1 h at room temperature, 10 mM cacodylate buffer; SDS-PAGE and blot with HisProbe-HRP
protein,measurement,value
B1,stoichiometry N,2
